{"source": "paper PMC6162179", "origin": "cited, not measured here", "key": {"[1]": {"target": "Thioredoxin (Escherichia coli) [thioredoxin: P0AA25]", "sequence (P0AA25 2-109)": "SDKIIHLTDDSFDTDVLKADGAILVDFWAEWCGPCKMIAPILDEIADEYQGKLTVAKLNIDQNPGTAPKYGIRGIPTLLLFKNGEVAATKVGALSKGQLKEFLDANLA"}, "[2]": {"target": "gp5 DNA polymerase (Escherichia phage T7) (UniProt P00581)", "sequence (P00581 whole entry)": "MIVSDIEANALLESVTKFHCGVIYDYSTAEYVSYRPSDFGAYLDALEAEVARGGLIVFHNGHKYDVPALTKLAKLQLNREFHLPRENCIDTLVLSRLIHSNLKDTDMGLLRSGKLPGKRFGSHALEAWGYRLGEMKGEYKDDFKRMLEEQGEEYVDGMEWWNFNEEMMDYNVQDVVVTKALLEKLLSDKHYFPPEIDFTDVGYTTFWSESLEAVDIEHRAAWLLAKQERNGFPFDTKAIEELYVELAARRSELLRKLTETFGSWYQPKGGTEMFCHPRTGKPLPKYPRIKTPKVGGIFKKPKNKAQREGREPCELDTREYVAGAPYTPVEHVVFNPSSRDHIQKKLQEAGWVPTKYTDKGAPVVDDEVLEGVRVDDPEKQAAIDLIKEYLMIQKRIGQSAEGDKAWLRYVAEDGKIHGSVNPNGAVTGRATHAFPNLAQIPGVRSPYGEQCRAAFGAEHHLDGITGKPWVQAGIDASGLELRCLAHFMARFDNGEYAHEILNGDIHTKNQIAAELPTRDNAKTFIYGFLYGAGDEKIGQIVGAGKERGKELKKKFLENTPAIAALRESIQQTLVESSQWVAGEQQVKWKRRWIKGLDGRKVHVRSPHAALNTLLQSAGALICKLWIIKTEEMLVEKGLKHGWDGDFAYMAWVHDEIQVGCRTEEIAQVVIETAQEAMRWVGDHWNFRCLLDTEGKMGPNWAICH"}}, "data": [{"substance": "gp2.5 (from UniProt P03696)", "values": [{"measurement": "Kd", "setting": "[1]", "result": 500, "unit": "µM"}, {"measurement": "Kd", "setting": "[2]", "result": 1, "unit": "µM"}]}]}
